Earlier results, collected in patent US20250326839A1, “TREATMENT OF DISEASES RELATED TO COLONY-STIMULATING FACTOR 1 RECEPTOR DYSFUNCTION USING TREM2 AGONISTS” (Vigil Neuroscience, Inc., priority 2020, published 2025).
Like-named read-outs stand apart in the source and are kept apart here. Marks after values point to notes of the source that are not given here.

T1: TREM2 (Homo sapiens, UniProt Q9NZC2)
T1 sequence (Q9NZC2 19-230): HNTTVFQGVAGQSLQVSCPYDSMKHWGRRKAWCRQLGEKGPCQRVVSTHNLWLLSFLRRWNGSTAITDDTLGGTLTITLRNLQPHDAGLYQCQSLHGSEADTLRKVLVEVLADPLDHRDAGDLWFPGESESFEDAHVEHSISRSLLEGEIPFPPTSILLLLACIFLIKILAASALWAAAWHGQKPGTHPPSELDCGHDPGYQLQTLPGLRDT


Target: T1, TREM2
Settings: cited from earlier work
[1] = 10 nM Ab concentration (values not marked *)

Molecule	Binding Signal (fold over 6E7 parental antibody) 1st screen 110 nM or 10 nM [1]	Binding Signal (fold over 6E7 parental antibody) 2nd screen 2 nM (2nd screen)	Binding Signal (fold over 6E7 parental antibody) 2nd screen 10 nM (2nd screen)	Binding Signal (fold over 6E7 parental antibody) 1st screen 110 nM or 10 nM (110 nM Ab concentration (values marked *))	Binding Signal (fold over 6E7 parental antibody) 2nd screen 100 nM (2nd screen, 100 nM)
V87: 6E7 variant: VH T30R, T58V, S63D, Q99S; VL N56W (antibody, V domains shown) VH: EVQLVQSGAEVKKPGESLKISCKGSGYSFRSYWIAWVRQMPGKGLEWMGIIYPGDSDVRYSPDFQGQVTISADKSISTAYLQWSSLKASDTAMYFCARSRTFYYDSSDYFDYWGQGTLVTVSS VL: DIQMTQSPSSVSASVGDRVTITCRASQGISSWLAWYQQKPGKAPKLLIYAASSLQWGVPSRFSGSGSGTDFTLTISSLQPEDFATYFCQQADSFPRTFGQGTKLEIK	3.84 fold over 6E7 parental antibod	4.86 fold over 6E7 parental antibod	3.93 fold over 6E7 parental antibod		
V88: 6E7 variant: VH T30G; VL S53R, N56R, F94S (antibody, V domains shown) VH: EVQLVQSGAEVKKPGESLKISCKGSGYSFGSYWIAWVRQMPGKGLEWMGIIYPGDSDTRYSPSFQGQVTISADKSISTAYLQWSSLKASDTAMYFCARQRTFYYDSSDYFDYWGQGTLVTVSS VL: DIQMTQSPSSVSASVGDRVTITCRASQGISSWLAWYQQKPGKAPKLLIYAASRLQRGVPSRFSGSGSGTDFTLTISSLQPEDFATYFCQQADSSPRTFGQGTKLEIK	4.92 fold over 6E7 parental antibod	5.57 fold over 6E7 parental antibod	5.30 fold over 6E7 parental antibod		
V17: 6E7 variant: VH T30G, Q99S; VL L54R, F94S (antibody, V domains shown) VH: EVQLVQSGAEVKKPGESLKISCKGSGYSFGSYWIAWVRQMPGKGLEWMGIIYPGDSDTRYSPSFQGQVTISADKSISTAYLQWSSLKASDTAMYFCARSRTFYYDSSDYFDYWGQGTLVTVSS VL: DIQMTQSPSSVSASVGDRVTITCRASQGISSWLAWYQQKPGKAPKLLIYAASSRQNGVPSRFSGSGSGTDFTLTISSLQPEDFATYFCQQADSSPRTFGQGTKLEIK	5.37 fold over 6E7 parental antibod	4.22 fold over 6E7 parental antibod	5.51 fold over 6E7 parental antibod		
V90: 6E7 variant: VH Y32E; VL S31R (antibody, V domains shown) VH: EVQLVQSGAEVKKPGESLKISCKGSGYSFTSEWIAWVRQMPGKGLEWMGIIYPGDSDTRYSPSFQGQVTISADKSISTAYLQWSSLKASDTAMYFCARQRTFYYDSSDYFDYWGQGTLVTVSS VL: DIQMTQSPSSVSASVGDRVTITCRASQGISRWLAWYQQKPGKAPKLLIYAASSLQNGVPSRFSGSGSGTDFTLTISSLQPEDFATYFCQQADSFPRTFGQGTKLEIK				0.33* fold over 6E7 parental antibod	0.36 fold over 6E7 parental antibod
V24: 6E7 variant: VH T58V, Q99S; VL N56K, R96H (antibody, V domains shown) VH: EVQLVQSGAEVKKPGESLKISCKGSGYSFTSYWIAWVRQMPGKGLEWMGIIYPGDSDVRYSPSFQGQVTISADKSISTAYLQWSSLKASDTAMYFCARSRTFYYDSSDYFDYWGQGTLVTVSS VL: DIQMTQSPSSVSASVGDRVTITCRASQGISSWLAWYQQKPGKAPKLLIYAASSLQKGVPSRFSGSGSGTDFTLTISSLQPEDFATYFCQQADSFPHTFGQGTKLEIK	2.64 fold over 6E7 parental antibod	1.42 fold over 6E7 parental antibod	2.90 fold over 6E7 parental antibod		
V26: 6E7 variant: VH A35G, I50T, F102M, Y112A; VL N56R, F94Y (antibody, V domains shown) VH: EVQLVQSGAEVKKPGESLKISCKGSGYSFTSYWIGWVRQMPGKGLEWMGTIYPGDSDTRYSPSFQGQVTISADKSISTAYLQWSSLKASDTAMYFCARQRTMYYDSSDYFDAWGQGTLVTVSS VL: DIQMTQSPSSVSASVGDRVTITCRASQGISSWLAWYQQKPGKAPKLLIYAASSLQRGVPSRFSGSGSGTDFTLTISSLQPEDFATYFCQQADSYPRTFGQGTKLEIK	3.57 fold over 6E7 parental antibod	2.83 fold over 6E7 parental antibod	3.47 fold over 6E7 parental antibod		
V25: 6E7 variant: VH T30G, I50L, Q99S; VL Q55A, F94M (antibody, V domains shown) VH: EVQLVQSGAEVKKPGESLKISCKGSGYSFGSYWIAWVRQMPGKGLEWMGLIYPGDSDTRYSPSFQGQVTISADKSISTAYLQWSSLKASDTAMYFCARSRTFYYDSSDYFDYWGQGTLVTVSS VL: DIQMTQSPSSVSASVGDRVTITCRASQGISSWLAWYQQKPGKAPKLLIYAASSLANGVPSRFSGSGSGTDFTLTISSLQPEDFATYFCQQADSMPRTFGQGTKLEIK	4.23 fold over 6E7 parental antibod	3.15 fold over 6E7 parental antibod	4.70 fold over 6E7 parental antibod		
V13: 6E7 variant: VH T30G, P62A, Q99G; VL N56G, F94M (antibody, V domains shown) VH: EVQLVQSGAEVKKPGESLKISCKGSGYSFGSYWIAWVRQMPGKGLEWMGIIYPGDSDTRYSASFQGQVTISADKSISTAYLQWSSLKASDTAMYFCARGRTFYYDSSDYFDYWGQGTLVTVSS VL: DIQMTQSPSSVSASVGDRVTITCRASQGISSWLAWYQQKPGKAPKLLIYAASSLQGGVPSRFSGSGSGTDFTLTISSLQPEDFATYFCQQADSMPRTFGQGTKLEIK	1.31 fold over 6E7 parental antibod	1.15 fold over 6E7 parental antibod	1.35 fold over 6E7 parental antibod		
V16: 6E7 variant: VH F29M, S56G, Q99S; VL S53N (antibody, V domains shown) VH: EVQLVQSGAEVKKPGESLKISCKGSGYSMTSYWIAWVRQMPGKGLEWMGIIYPGDGDTRYSPSFQGQVTISADKSISTAYLQWSSLKASDTAMYFCARSRTFYYDSSDYFDYWGQGTLVTVSS VL: DIQMTQSPSSVSASVGDRVTITCRASQGISSWLAWYQQKPGKAPKLLIYAASNLQNGVPSRFSGSGSGTDFTLTISSLQPEDFATYFCQQADSFPRTFGQGTKLEIK	4.01 fold over 6E7 parental antibod	3.57 fold over 6E7 parental antibod	4.04 fold over 6E7 parental antibod		
V15: 6E7 variant: VH T30A, I50T, Q99S; VL S53W, F94Y (antibody, V domains shown) VH: EVQLVQSGAEVKKPGESLKISCKGSGYSFASYWIAWVRQMPGKGLEWMGTIYPGDSDTRYSPSFQGQVTISADKSISTAYLQWSSLKASDTAMYFCARSRTFYYDSSDYFDYWGQGTLVTVSS VL: DIQMTQSPSSVSASVGDRVTITCRASQGISSWLAWYQQKPGKAPKLLIYAASWLQNGVPSRFSGSGSGTDFTLTISSLQPEDFATYFCQQADSYPRTFGQGTKLEIK	5.23 fold over 6E7 parental antibod	4.72 fold over 6E7 parental antibod	4.78 fold over 6E7 parental antibod		
V14: 6E7 variant: VH T30G, S56Q, Q99G; VL S53R (antibody, V domains shown) VH: EVQLVQSGAEVKKPGESLKISCKGSGYSFGSYWIAWVRQMPGKGLEWMGIIYPGDQDTRYSPSFQGQVTISADKSISTAYLQWSSLKASDTAMYFCARGRTFYYDSSDYFDYWGQGTLVTVSS VL: DIQMTQSPSSVSASVGDRVTITCRASQGISSWLAWYQQKPGKAPKLLIYAASRLQNGVPSRFSGSGSGTDFTLTISSLQPEDFATYFCQQADSFPRTFGQGTKLEIK	4.71 fold over 6E7 parental antibod	2.57 fold over 6E7 parental antibod	4.64 fold over 6E7 parental antibod		
V28: 6E7 variant: VH T30Q, I50T, Y103F; VL N56S, F94L (antibody, V domains shown) VH: EVQLVQSGAEVKKPGESLKISCKGSGYSFQSYWIAWVRQMPGKGLEWMGTIYPGDSDTRYSPSFQGQVTISADKSISTAYLQWSSLKASDTAMYFCARQRTFFYDSSDYFDYWGQGTLVTVSS VL: DIQMTQSPSSVSASVGDRVTITCRASQGISSWLAWYQQKPGKAPKLLIYAASSLQSGVPSRFSGSGSGTDFTLTISSLQPEDFATYFCQQADSLPRTFGQGTKLEIK	3.08 fold over 6E7 parental antibod	2.63 fold over 6E7 parental antibod	3.61 fold over 6E7 parental antibod		
V27: 6E7 variant: VH S61A, Q99S; VL N56R (antibody, V domains shown) VH: EVQLVQSGAEVKKPGESLKISCKGSGYSFTSYWIAWVRQMPGKGLEWMGIIYPGDSDTRYAPSFQGQVTISADKSISTAYLQWSSLKASDTAMYFCVRSRTFYYDSSDYFDYWGQGTLVTVSS VL: DIQMTQSPSSVSASVGDRVTITCRASQGISSWLAWYQQKPGKAPKLLIYAASSLQRGVPSRFSGSGSGTDFTLTISSLQPEDFATYFCQQADSFPRTFGQGTKLEIK	5.50 fold over 6E7 parental antibod	5.67 fold over 6E7 parental antibod	5.69 fold over 6E7 parental antibod		
